Molecular target: BamA (E. coli (endogenous in MC4100-derived strains)), P0A940
Assay: cross-linking; in vivo formaldehyde cross-linking (0.7%, 12 min, room temperature, cells in PBS pH 7.6), SDS-PAGE and immunoblot with anti-RcsF and anti-BamA; strains grown in glucose minimal medium at 30°C; backgrounds: WT, ΔbamE, bamA101, bamB::Kan, bamD(R197L), bamD(L13P), bamA(F494L) and combinations
Conditions: remark: other sources report otherwise

fraction of BamA cross-linked to RcsF (ΔbamE strain): 30%
B1: regulator of capsule synthesis protein F (RcsF), P69411 16-134 (natural protein)
chain: CSMLSRSPVEPVQSTAPQPKAEPAKPKAPRATPVRIYTNAEELVGKPFRDLGEVSGDSCQASNQDSPPSIPTARKRMQINASKMKANAVLLHSCEVTSGTPGCYRQAVCIGSALNITAK
modifications: here or on the partner: lipid moiety on the N-terminal domain (lipoprotein)

Source: publication PMC6529637
